Measurements published in paper PMC4646805 (Science Advances, 2015).
Like-named read-outs stand apart in the source and are kept apart here.

B1: wild-type human β-cardiac myosin short subfragment 1 (sS1) with C-terminal 6× His tag (complex)
chain 1: MGDSEMAVFGAAAPYLRKSEKERLEAQTRPFDLKKDVFVPDDKQEFVKAKIVSREGGKVTAETEYGKTVTVKEDQVMQQNPPKFDKIEDMAMLTFLHEPAVLYNLKDRYGSWMIYTYSGLFCVTVNPYKWLPVYTPEVVAAYRGKKRSEAPPHIFSISDNAYQYMLTDRENQSILITGESGAGKTVNTKRVIQYFAVIAAIGDRSKKDQSPGKGTLEDQIIQANPALEAFGNAKTVRNDNSSRFGKFIRIHFGATGKLASADIETYLLEKSRVIFQLKAERDYHIFYQILSNKKPELLDMLLITNNPYDYAFISQGETTVASIDDAEELMATDNAFDVLGFTSEEKNSMYKLTGAIMHFGNMKFKLKQREEQAEPDGTEEADKSAYLMGLNSADLLKGLCHPRVKVGNEYVTKGQNVQQVIYATGALAKAVYERMFNWMVTRINATLETKQPRQYFIGVLDIAGFEIFDFNSFEQLCINFTNEKLQQFFNHHMFVLEQEEYKKEGIEWTFIDFGMDLQACIDLIEKPMGIMSILEEECMFPKATDMTFKAKLFDNHLGKSANFQKPRNIKGKPEAHFSLIHYAGIVDYNIIGWLQKNKDPLNETVVGLYQKSSLKLLSTLFANYAGADAPIEKGKGKAKKGSSFQTVSALHRENLNKLMTNLRSTHPHFVRCIIPNETKSPGVMDNPLVMHQLRCNGVLEGIRICRKGFPNRILYGDFRQRYRILNPAAIPEGQFIDSRKGAEKLLSSLDIDHNQYKFGHTKVFFKAGLLGLLEEMRDERLSRIITRIQAQSRGVLARMEYKKLLERR
chain 2: not shown
B2: R403Q human β-cardiac myosin short subfragment 1 (sS1) with C-terminal 6× His tag (complex)
chain 1: MGDSEMAVFGAAAPYLRKSEKERLEAQTRPFDLKKDVFVPDDKQEFVKAKIVSREGGKVTAETEYGKTVTVKEDQVMQQNPPKFDKIEDMAMLTFLHEPAVLYNLKDRYGSWMIYTYSGLFCVTVNPYKWLPVYTPEVVAAYRGKKRSEAPPHIFSISDNAYQYMLTDRENQSILITGESGAGKTVNTKRVIQYFAVIAAIGDRSKKDQSPGKGTLEDQIIQANPALEAFGNAKTVRNDNSSRFGKFIRIHFGATGKLASADIETYLLEKSRVIFQLKAERDYHIFYQILSNKKPELLDMLLITNNPYDYAFISQGETTVASIDDAEELMATDNAFDVLGFTSEEKNSMYKLTGAIMHFGNMKFKLKQREEQAEPDGTEEADKSAYLMGLNSADLLKGLCHPQVKVGNEYVTKGQNVQQVIYATGALAKAVYERMFNWMVTRINATLETKQPRQYFIGVLDIAGFEIFDFNSFEQLCINFTNEKLQQFFNHHMFVLEQEEYKKEGIEWTFIDFGMDLQACIDLIEKPMGIMSILEEECMFPKATDMTFKAKLFDNHLGKSANFQKPRNIKGKPEAHFSLIHYAGIVDYNIIGWLQKNKDPLNETVVGLYQKSSLKLLSTLFANYAGADAPIEKGKGKAKKGSSFQTVSALHRENLNKLMTNLRSTHPHFVRCIIPNETKSPGVMDNPLVMHQLRCNGVLEGIRICRKGFPNRILYGDFRQRYRILNPAAIPEGQFIDSRKGAEKLLSSLDIDHNQYKFGHTKVFFKAGLLGLLEEMRDERLSRIITRIQAQSRGVLARMEYKKLLERR
chain 2: not shown

Tests used:
[1] = target: T1, rabbit skeletal muscle actin, pyrene-labelled, phalloidin-stabilized (rabbit, UniProt P68135 1-377, pyrene (labelled with pyrene-maleimide)); assay: other fluorescence titration
[2] = target: T1, rabbit skeletal muscle actin, …; assay: other fluorescence titration; remark: listed apart in the source

Row | Binder | Kd [1] [nM] | Kd [2] [nM]
1 | B1 | 23.4 ± 2.5 | 10 ± 1.8
2 | B2 | 63.2 ± 16.7 | 19.7 ± 6.2
